The text below walks through data of the nanobody polyreactivity screen of Harvey et al. (2022).

This series can be described thus: yeast display, Sf9 membrane polyspecificity reagent, FACS + sequencing; frameworks hold sequencing errors. An outline of the steps: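 Polyreactivity labels are assigned by the sorting gate from which each nanobody was recovered. The gates were low and high (top ~1%), set on anti-HA fluorescence for expression and streptavidin fluorescence for reagent binding. Before sorting, galactose-induced (36–48 hours) yeast display cells were stained for 1 hour at 4 °C with 10% biotinylated, detergent-solubilized Sf9 membrane reagent.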
As for “HVQLVESGGGLVQAGGRLRLSCAASGRTFWYYTMGWYRQAPGKDRELVAAITSVGSTYYADSVKGRFTISRDNAKNTVYLQMNSLKPEDTAVYYCAKLYSYTHQSFDHWGQGTQVTVSS”, the “polyreactivity (PSR sort gate)” value is on record as “high polyreactivity”.

Consider “QVQLVESGGGLVQAGGSLRLSCAASGRIFGRYAMGWYRQAPGTERELVAAITSGGRTSYADSVKGRFTISRDNAKNTVDLQMNSLKPEDTAVYYCNVVSRNSIRFDYWGQGTQVTVSS”, for which the “polyreactivity (PSR sort gate)” value is listed as “high polyreactivity”.

In the case of “QVQHVESGGGLVQAGGSLRLSCAASGLIFTKNAMGWCRQARGKEWELVAAISRGGGTPYYADSVKGRFTISRDHAKNTVYLQMNSLKPEDTAVYYCAAESYLQYPGAGDSWGQGTQVTVSS”, the “polyreactivity (PSR sort gate)” value was “high polyreactivity”.

In the case of “QVQLVESGGGLVQAGGSLRLSCAASGSTFAANAMGWSRPAPGKERELVAAITSSGGSTYYADSVKGRFTISRDYAKNTVYLQMNSLKPEDTAVYYCNKDIERYVRIYDSWGQGTQVTVSS”, the “polyreactivity (PSR sort gate)” value is on record as “low polyreactivity”.

Take “QVQLVESGGGLVQAGGSLRLSCAASGRTFWTNAMGWYRQAPGKEREFVAGISQSGGSTYYADSVKGRFTISRDNAKNTVYLQMNSLKPEDTAVYYCATVKAYRRNYYYWGQGTQVTVSS”: the “polyreactivity (PSR sort gate)” value is listed as “high polyreactivity”. Take “QVQLVESGGGLVQAGGSLRLSCAASGSTFVYYAMGWYRQAPGKERELVAAMTSSGGRTYYADSVKGRFTISRDNAKNTVYLQMNSLKPEDTAVYYCATPSTRLYSVTSQGYGYWGQGTQVTVSS”: the “polyreactivity (PSR sort gate)” value is listed as “high polyreactivity”. In the case of “QVQLVESGGGLVQAGGSLRLSCAASGSILNSYAMGWYRQAPVKERELVARITGDGGITYYADSVKGRFTISRDNAKNTVYLQMNSLKPEDTAVYYCNAEVVALRRDTIYDYWGQGTQVTVSS”, the “polyreactivity (PSR sort gate)” value is recorded as “low polyreactivity”. With “QVQLVESGGGLVQAGGSLRIISAASGSTFTRYTMGWYRQAPGKEMEFVAAISFSGGSTYYADSVKGRFTIARDNAKNTVYLEMNSLKPEDTAVYYCAASAHCYRPARDYWGQGTQVTVSS” the entry was “low polyreactivity”. In the case of “QVQLVESGGGLVQAGGSHRLSSAASGNTFGINAMGWYRQAPGKERELVASISFTGSSTYYADSVKGRFTISRDNAKNTVYLQMNSLKPEDTAVYYCNRDRITLYEYDYWGQGTQVTVSS”, the “polyreactivity (PSR sort gate)” value is “low polyreactivity”. Regarding “QVQLVESGGGLVQAGGSLRLSCAASGRITYYAMGWYRQAPGKERELVAAITWSGGRTYYADSVKGRFTISRDNAKNTVYLQMNSLKPEDTAVYYCAKTRIYSKHWTEPYFYRVDSWGQGTQVTVSS”, the “polyreactivity (PSR sort gate)” value was “high polyreactivity”.

Consider “QVQLVESGGGLVQAGGSLRLSCAASGYIFYTYAMGWYRQAPGKERELVAGINRGDSTNYADSVKGRFTISRDNAKNTVYLQMNSLKPEDTAVYYCNARQRTYYRTHRIRHKGNGYWGQGTQVTVSS”, for which the “polyreactivity (PSR sort gate)” value is given as “low polyreactivity”.

Take “QVQLVESGGGLVQAVGSLRLSCAASGITFKWYAMGSYRHAPGKERELVAAISWSTGSTYYADSVKGRFTISRDNAKNTVYLQMNSLKPEDTAVYYCAARVKRPQTGYDRRYGYWGQGTQVTVSS”: the “polyreactivity (PSR sort gate)” value is “high polyreactivity”. Regarding “QVQLVESGGGLVQAGGSLRLSCAASGFTFSTNAMGWYRQAPGKERELVAAISCTGGSTYYADSVKGRFTISRDNAKNTVYLQMNSLKPEDTAVYYCATKFFNPGMYFWGQGTQVTVSS”, the “polyreactivity (PSR sort gate)” value is “high polyreactivity”. Regarding “QVQLVESGGGLVQAGGSLRLSCAASGRTFRKYAMGWYRQAPGKEMELVAGITSIGGRTYYADSVKGRFTISRDNAKNTVYLQMNSLKPEDTAVYYCAADSIGRKNWSLHSNYWGQGTQVTVSS”, the “polyreactivity (PSR sort gate)” value was “low polyreactivity”. With “QVQLVESGGGLVQAGGSLRLSCAASGSIFDVYAMGWYRQAPGKERELVARITWSGGSTYYADSVKGRFTISRDNAKNTVYLQMTSLKPEDTAVYYCNVDQVHPTRGLDYWGQGTQVTVSS”, the “polyreactivity (PSR sort gate)” value is reported as “low polyreactivity”. Take “QVQLVESGGGLVQAGGSLRLSCAASGSTFVSNAMGWYRPAPGKERELVAAINGSGGITYYADSVKGRFTISRDNAKNTVYLQMNSLKPEDTAVYYCAAEYDGPSTWVDYYYHYGYWGQGTQVTVSS”: the “polyreactivity (PSR sort gate)” value is listed as “low polyreactivity”.
